# In the RNAGym collection of RNA variant scans (doi:10.1073/pnas.2313332121):
# B1: TPR t1 (parent)
# chain: GACCAAUCUGCCCUCAGAGCUCGAGAACAUCUUCGGAUGCAGAGGAGGCAGGCUUCGGUGGCGCGAUAGCGCCAACGUCCUCAACCUCCAAUGCAUCCCACCACAUGAUGAUGCCUGAAGAGCCUUGGUUUUUUG
# Variants of: B1
# Experiment: polymerase ribozyme fitness, log enrichment relative to wild type (log ratio); higher = more active; in vitro selection for triplet polymerase activity
# Summary of the method: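 Mutant libraries of each subunit of a heterodimeric triplet polymerase ribozyme were built by PCR and transcribed. Each library went through one round of in vitro selection in triplicate: annealing with biotinylated primer, partner subunit and triplets, frozen incubation at −7 °C, gel excision of extended constructs, streptavidin-bead capture and RT-PCR. Input and output libraries were Illumina-sequenced; only genotypes with ≥10 input reads and ≥1 read per output were kept. Fitness is log2(genotype enrichment/wild-type enrichment), using inverse-variance-weighted replicate averages.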
row,Variant,polymerase ribozyme fitness (log ratio)
1,U21A G47C,-1.67
2,C20G C64A C70G G113A U125G U133G,-5.92
3,C20U U59A C76G,-2.85
4,C20A G52A G60A C98A C99U A105G C114A,-5.87
5,C20U G44A G45U,-3.42
6,U21A A90C,-1.58
7,C20U G35U,-5.32
8,C20U A29G G61U C115A U116C G117U,-1.83
9,C20U U78A C85U,-2.54
10,C20U G63C,-2.1
11,C20U G63A,-1.73
12,C20A G39A G77U A121G,-1.8
13,C20U A29G G61U C115A U116C G117U G135C,-1.97
14,C20G C86A,-4.53
15,C20G A41U C73G U87C U92A C123G,-4.71
16,C20G A41U C104A G113A U132C,-5.25
17,C20U A50U A83C,-5.22
18,U21A A50U G61U U130A,-1.97
19,U21A C104U G117A G120U,-3.67
20,U21A U116G G122U C124G U126A,-1.21
21,C20U U109A,-4.34

row,Variant,polymerase ribozyme fitness (log ratio)
1,C20U C64U C85G C94G,-3.93
2,C20U C62G C101U G110C,-6.8
3,U21A G60U A83U U126C,-0.934
4,C20A U92G G122U,-4.6
5,C20G G47C,-5.65
6,C20U G36A G122A G127C G135U,-5.15
7,C20A G52U C62U U96G G120A,-3.86
8,C20U G61C G93C,-3.53
9,C20G U32A G44C A111C G113U,-2.86
10,C20G A100U U112G,-5.11
11,C20U C28U C72A C94U,-1.9
12,C20A G57C C62U G120C,-2.1
13,C20G A75U,-4.41
14,C20U C64A C98A G117U,-6.4
15,U21A A43C G63C,-4.13
16,C20U C49G G52C C72A G93U G117U A119G G128U,-4.52
17,C20A U32A G35C G71U C115A,-5.14
18,C20A G57A C72A U87A,-4.5
19,C20U C76U G93C,-3.66
20,C20A G61C U133G,-4.9
21,C20U A26C C89U C124A,-4.83

row,Variant,polymerase ribozyme fitness (log ratio)
1,C20U G122A,-2.04
2,U21A C62G C73U,-2.55
3,C20U A24U U32C C85U C101G G110U,-6.93
4,C20A G42U G47U C53U G120U,-3.98
5,C20U G77A A84U U112G,-2.88
6,C20U C22A A50C G69U,-2.32
7,C20U C49U A90U G117U,-4.34
8,C20A G48U A50U G120U U132C,-4.56
9,C20A G69U C104A,-2.59
10,U21A C97G,-4.44
11,U21A G39U C64U A91C,-2.67
12,U21A C28A G71A C79U U81A G110C,-6.99
13,U21A U54C G61A A111G C123U,-5.38
14,C20G C34U G63A C79U C99U A111C,-5.53
15,C20G C72G,-4.5
16,C20G U106A,-4.68
17,C20U G42U U55G G69C U87C,-4.35
18,U21A A41U G60A U96A,-4.01
19,C20U G63U A118G U132A,-2.9
20,U21A C22A A27C C89U C114U A121U,-3.32
21,C20U C70G,-3.54

row,Variant,polymerase ribozyme fitness (log ratio)
1,C20U C70A,-3.13
2,C20U G42U C56A A74U C115G,-4.76
3,C20U G35C G60U,-5.9
4,U21A A26U,-4.35
5,C20U U32G C73G C97U C123U,-5.73
6,C20U C56G,-1.53
7,C20U C56U,-1.64
8,C20U G45A G93U,-4.76
9,C20U A43G G69C C88U U130A,-5.74
10,C20U C40U A43U G93U,-4.35
11,C20U C40U C70U G120C,-1.36
12,C20U C56U C70U A84U U130C,-2.96
13,C20U A29G C49A G58A A74U U81A U112A,-3.14
14,C20G A91C C114U,-2.15
15,C20G C76A,-4.94
16,C20U G48U G57U G60A,-2.57
17,C20A G39U G42A U55C C99U G113C G122A C123U,-6.79
18,C20G G63A C102A U106C G120A U126A,-7.38
19,U21A U38G U54C U59A,-1.06
20,C20G U32C G48C G120A U130A,-5.95
21,C20A G61C,-4.5
